Data as given in patent US20250236663A1.

Legend:
[1] = target: Recombinant human FAM19A5 protein (His-tagged) (human) (UniProt Q7Z5A7); assay: ELISA, N'-Term His; design: unit not given here
[2] = target: Recombinant human FAM19A5 protein (His-tagged) (human) (UniProt Q7Z5A7); assay: ELISA, N'-Term His; R² 0.8823
[3] = target: Recombinant human FAM19A5 protein (His-tagged) (human) (UniProt Q7Z5A7); assay: OCTET (BLI), His-tagged FAM19A5 on Ni-NTA biosensors, antibody at 1.1-300 nM
[4] = target: Recombinant human FAM19A5 protein (His-tagged) (human) (UniProt Q7Z5A7); assay: two-site sandwich ELISA, capture antibody 3-2; O.D. 1.7 / 0.3 / 0.13 at antigen 100 / 10 / 0 (ng/mL); white box
[5] = target: Recombinant human FAM19A5 protein (His-tagged) (human) (UniProt Q7Z5A7); assay: two-site sandwich ELISA, capture antibody 1-65; O.D. 0.12 / 0.12 / 0.12 at antigen 100 / 10 / 0 (ng/mL); grey box
[6] = target: Recombinant human FAM19A5 protein (His-tagged) (human) (UniProt Q7Z5A7); assay: two-site sandwich ELISA, capture antibody 2-13; O.D. 1.92 / 0.65 / 0.21 at antigen 100 / 10 / 0 (ng/mL); white box
[7] = target: Recombinant human FAM19A5 protein (His-tagged) (human) (UniProt Q7Z5A7); assay: two-site sandwich ELISA, capture antibody P2-A03; O.D. 0.15 / 0.16 / 0.14 at antigen 100 / 10 / 0 (ng/mL); grey box
[8] = target: Recombinant human FAM19A5 protein (His-tagged) (human) (UniProt Q7Z5A7); assay: two-site sandwich ELISA, capture antibody P2-F11; O.D. 0.14 / 0.16 / 0.15 at antigen 100 / 10 / 0 (ng/mL); grey box
[9] = target: Recombinant human FAM19A5 protein (His-tagged) (human) (UniProt Q7Z5A7); assay: ELISA, N'-Term His; R² 0.9813
[10] = target: Recombinant human FAM19A5 protein (His-tagged) (human) (UniProt Q7Z5A7); assay: ELISA, N'-Term His; R² 0.9692
[11] = target: Recombinant human FAM19A5 protein (His-tagged) (human) (UniProt Q7Z5A7); assay: two-site sandwich ELISA, capture antibody 13B4; O.D. 0.2 / 0.18 / 0.18 at antigen 100 / 10 / 0 (ng/mL); grey box
[12] = target: Recombinant human FAM19A5 protein (His-tagged) (human) (UniProt Q7Z5A7); assay: two-site sandwich ELISA, capture antibody 3-2; O.D. 2.02 / 1.81 / 0.13 at antigen 100 / 10 / 0 (ng/mL); white box
[13] = target: Recombinant human FAM19A5 protein (His-tagged) (human) (UniProt Q7Z5A7); assay: two-site sandwich ELISA, capture antibody 2-13; O.D. 1.83 / 2.04 / 0.29 at antigen 100 / 10 / 0 (ng/mL); white box
[14] = target: Recombinant human FAM19A5 protein (His-tagged) (human) (UniProt Q7Z5A7); assay: two-site sandwich ELISA, capture antibody P2-A03; O.D. 0.09 / 0.09 / 0.09 at antigen 100 / 10 / 0 (ng/mL); grey box
[15] = target: Recombinant human FAM19A5 protein (His-tagged) (human) (UniProt Q7Z5A7); assay: two-site sandwich ELISA, capture antibody 1-65; O.D. 1.25 / 0.2 / 0.12 at antigen 100 / 10 / 0 (ng/mL); grey box but for the cell of 100
[16] = target: Recombinant human FAM19A5 protein (His-tagged) (human) (UniProt Q7Z5A7); assay: ELISA, N'-Term His; R² -0.2016
[17] = target: Recombinant human FAM19A5 protein (His-tagged) (human) (UniProt Q7Z5A7); assay: ELISA, N'-Term His; R² 0.9746
[18] = target: Recombinant human FAM19A5 protein (His-tagged) (human) (UniProt Q7Z5A7); assay: two-site sandwich ELISA, capture antibody 1-65; O.D. 0.16 / 0.15 / 0.15 at antigen 100 / 10 / 0 (ng/mL); grey box
[19] = target: Recombinant human FAM19A5 protein (His-tagged) (human) (UniProt Q7Z5A7); assay: two-site sandwich ELISA, capture antibody 13B4; O.D. 0.27 / 0.22 / 0.22 at antigen 100 / 10 / 0 (ng/mL); grey box
[20] = target: Recombinant human FAM19A5 protein (His-tagged) (human) (UniProt Q7Z5A7); assay: two-site sandwich ELISA, capture antibody 3-2; O.D. 1.91 / 1.66 / 0.16 at antigen 100 / 10 / 0 (ng/mL); white box
[21] = target: Recombinant human FAM19A5 protein (His-tagged) (human) (UniProt Q7Z5A7); assay: two-site sandwich ELISA, capture antibody 2-13; O.D. 1.88 / 1.72 / 0.22 at antigen 100 / 10 / 0 (ng/mL); white box
[22] = target: Recombinant human FAM19A5 protein (His-tagged) (human) (UniProt Q7Z5A7); assay: two-site sandwich ELISA, capture antibody P2-F11; O.D. 0.15 / 0.15 / 0.14 at antigen 100 / 10 / 0 (ng/mL); grey box
[23] = target: Recombinant human FAM19A5 protein (His-tagged) (human) (UniProt Q7Z5A7); assay: ELISA, N'-Term His; R² 0.9329
[24] = target: Recombinant human FAM19A5 protein (His-tagged) (human) (UniProt Q7Z5A7); assay: ELISA, N'-Term His; R² 0.9105

B1: Anti-FAM19A5 (P1-F02) (antibody, V domains shown)
VH: QSLEESGGRLVTPGTPLTLTCTASGFSLSNYYMGWVRQAPGEGLEWIGIIYASGSTYYASWAKGRFTISKTSTTVDLKMTSLTTEDTATYFCARIDIGVGDYGWAYDRLDLWGQGTLVTVSS
VL: ELDMTQTPPSLSASVGETVRIRCLASEDIYSGISWYQQKPGKPPTLLIYGASNLESGVPPRFSGSGSGTDYTLTIGGVQAEDAATYYCLGGYSYSSITFGAGTNVEIK
Bmax [1]: 0.172

B2: Anti-FAM19A5 (13B4) (antibody, V domains shown)
VH: QVQLQESGPGLVKPSGTLSLNCAVSGGSISSSNWWSWVRQPPGKGLEWIGEIYHGGTTNYNPSLKGRVTMSVDKTKNQFSLRLSSVTAVDTAVYYCARWQLVGGLDVWGQGTTVTVSS
VL: SYELTQPLSVSVSPGQTASITCSGDKLGNVYASWYQQKPGQSPTLVIYQDNKRPSGIPERFSGSNSGKTATLTISGTQALDEADYYCQAWDSSTAVFGGGTKLTVL
Bmax [1]: 2.84
Kd [2]: 1.06 nM
Kd [3]: 3.6 nM
S/N [4]: 2.3
S/N [5]: 1
S/N [6]: 3.1
S/N [7]: 1.1
S/N [8]: 1.1

B3: P1-A03 (antibody, V domains shown)
VH: QSVEESGGRLVTPGTPLTLTCTVSGFSLSSDYMSWVRQAPGEGLEWIGIIYPSTTTYYASWAKGRFTISKTSSTTVELKMTSLTTEDTATYFCARGSNWSSGMNLWGPGTLVTVSS
VL: ELVMTQTPPSLSASVGETVRIRCLASEDIYSGISWYQQKPEKPPTLLISGASNLESGVPPRFSGSGSGTDYTLTIGGVQAEDAATYYCLGGYSYSSTGLTFGAGTNVEIK
Bmax [1]: 2.45
Kd [9]: 7.5 nM

B4: Anti-FAM19A5 (P2-F11) (antibody, V domains shown)
VH: QEQLVESGGRLVTPGTTLTLTCTVSGFSLSSYGVSWVRQAPGKGLEWIGYIANNYNPHYASWAKGRFTISKTSSTTVDLKMTSLTTEDTATYFCARDNYGMDPWGPGTLVTVSS
VL: ELDLTQTPSSVSAAVGGTVTINCQASQSVYNNKNLAWYQQKPGQPPKLLIYAASTLASGVSSRFKGSGSGTQFTLTISDVQCDDAATYYCQGEFSCSSADCNAFGGGTELEIL
Bmax [1]: 3.26
Kd [10]: 0.41 nM
S/N [11]: 1
S/N [12]: 13.9
S/N [13]: 7
S/N [14]: 1
S/N [15]: 1.7

B5: Anti-FAM19A5 (P2-F07) (antibody, V domains shown)
VH: QSLEESGGRLVTPGTPLTLTCTASGFSLSSYYMNWVRQAPGKGLEWIGIIYPSGTTYYAGWAKGRFTISKTSTTVDLKITSPTSEDTATYFCARTVSGYFDIWGPGTLVTVSL
VL: ELDLTQTPPSLSASVGGTVTINCLASEDIYSALAWYQQKPGKPPTLLISGTSNLESGVPPRFSGSGSGTDYTLTIGGVQAEDAATYFCQGYSSYPLTFGAGTNVEIK
Bmax [1]: 0.134

B6: Anti-FAM19A5 (P1-A08) (antibody, V domains shown)
VH: QSLEESGGRLVTPGTPLTLTCTASGFSLSTYYMSWVRQAPGKGLEWIGIVYPSGTTYYANWAKGRFTISTASTTVDLMITSPTTEDTATYFCARGDSFGYGLWGPGTLVTVSS
VL: ELVLTQSPSVQVNLGQTVSLTCTADTLSRSYASWYQQKPGQAPVLLIYRDTSRPSGVPDRFSGSSSGNTATLTISGAQAGDEADYYCATSDGSGSNYQYVFGGGTQLTVT
Bmax [1]: 0.479
Kd [16]: 6.95 nM

B7: Anti-FAM19A5 (P2-A03) (antibody, V domains shown)
VH: QSVEESGGRLVTPGTPLTLTCTVSGFSLNNYDMSWVRQAPGKGLEYIGFMDTDGSAYYATWAKGRFTISRTSTTVDLKMTSPTTEDTATYFCARRGSSYYGGIDIWGPGTPVTVSL
VL: ELDLTQTPASVSEPVGGTVTIKCQASQSIGGNLAWYQQKPGQPPKLLIYRASTLASGVPSRFKGSGSGTDFTLTISDLECADAATYYCQSPAYDPAAYVGNAFGGGTELEIL
Bmax [1]: 3.37
Kd [17]: 0.61 nM
S/N [18]: 1
S/N [19]: 1
S/N [20]: 10
S/N [21]: 7.8
S/N [22]: 1.1

B8: Anti-FAM19A5 (15A9) (antibody, V domains shown)
VH: QVQLQESGPGLVKPSETLSLTCTVSGGSISSYYWSWIRQPPGKGLEWIGYIYPSGSTNYNPSLKSRVTISVDTSKNQFSLNLKSVTAVDTAVYYCARVNPFGYYYAMDVWGQGTTVTVSS
VL: DIQMTQSPSSLSASVGDRITISCRASQSISTSLNWYQQTPGKAPRLLIYGASTLQSGVPSRFSGGGSGTDFSLTITSLQPEDFATYYCQESASIPRTFGQGTKLDIK
Kd [3]: 5.95 nM

B9: Anti-FAM19A5 (13F7) (antibody, V domains shown)
VH: QVQLQEWGAGLLKPSETLSLTCAINAESFNGYSWTWIRQTPGKGLEWIGEISHFGSANYNPSLKSRATISADKSKNQFSLKLTSVTAVDTAVYYCARALRGTYSRFYYGMDVWGQGTTVTVSS
VL: DIVMTQTPLSLPVAPGEPASISCRSSQSLLHSNGYNYLDWYVQKPGQPPQLLIYLGSNRASGVPDRFSGSGSGTDFTLKISRVEAEDVGVYYCMQARQTPLTFGGGTKVEIK
Bmax [1]: 3.04
Kd [23]: 2.77 nM
Kd [3]: 0.25 nM

B10: Anti-FAM19A5 (P2-A01) (antibody, V domains shown)
VH: QEQLVESGGRLVTPGTPLTLSCTASGFFLSGYYMSWVRQAPGKGLEWIGIIYPSGSTDYASWAKGRFTISKTSTTVDLKITTPTTEDTATYFCARVAGYVGYGYETFFDIWGPGTLVTVSL
VL: ELVMTQTPPSLSASVGETVRIRCLASEDIYSGISWYQQKPGKPPTLLIYGASNLESGVPPRFSGSGSGSDYTLTIGGVQAEDAATYYCLGGVTYSSTGTHLTFGAGTNVEIK
Bmax [1]: 1.19
Kd [24]: 9.09 nM
